This note sets out measurements from patent US20240218074A1 (AKESO BIOPHARMA, published 2024).

Experiment [1] deals with T1, human CD73 expressed on cells (human PBMC CD8+ T cells and CD19+ B cells); endogenous CD73 of MDA-MB-231 and … (human, UniProt P21589 27-549).
T1 sequence (looked up): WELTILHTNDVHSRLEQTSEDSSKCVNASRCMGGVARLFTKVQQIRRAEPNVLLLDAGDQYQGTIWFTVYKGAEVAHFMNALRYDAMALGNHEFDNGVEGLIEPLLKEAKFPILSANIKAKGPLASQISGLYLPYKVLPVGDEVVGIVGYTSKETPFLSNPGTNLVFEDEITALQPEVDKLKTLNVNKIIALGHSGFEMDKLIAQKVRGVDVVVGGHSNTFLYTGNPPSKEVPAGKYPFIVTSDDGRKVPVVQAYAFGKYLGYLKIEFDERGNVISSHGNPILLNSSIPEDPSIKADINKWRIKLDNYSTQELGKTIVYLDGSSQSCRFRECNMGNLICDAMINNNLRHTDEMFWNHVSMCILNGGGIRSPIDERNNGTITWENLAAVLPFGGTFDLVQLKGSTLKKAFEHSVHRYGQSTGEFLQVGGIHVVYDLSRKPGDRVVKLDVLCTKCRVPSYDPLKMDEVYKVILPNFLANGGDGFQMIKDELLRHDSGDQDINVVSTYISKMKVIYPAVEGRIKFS
Briefly: cell-based or functional assay.

Experiment [2] addresses T1, human CD73 expressed on cells (human …). Nature of the experiment: FACS on human PBMC, binding to CD8+ T cells. How it is done: (§1) The experimental steps are as follows: The PBMCs were resuscitated, centrifuged at 1,200 rpm for 5 min, and the supernatant was discarded, resuspended in complete medium, counted, and incubated overnight at 37° C. The solution was centrifuged at 1,200 rpm for 5 min, cells were harvested, diluted antibody solution was added at 100 μL/well, mixed well, and incubated in a refrigerator at 4° C. for 1 hour. The solution was centrifuged at 750×g for 5 min, the supernatant was discarded, and washed 2 times with 200 μL of 1×PBS (containing 1% BSA and 0.05% NaN3). Anti-human CD3-FITC (2 μL/100 μL), anti-human CD19-PE (2 μL/100 μL) (Biolegend, article number: 302254), anti-human CD8-PerCP Cy5.5 (1 μL/100 μL), anti-human IgG Fc-AF647 (1:300) (Southern Biotech, catalog number: 9040-31) were added, and incubated at 4° C. for 30 minutes. The solution was centrifuged at 750×g for 5 min, the supernatant was discarded, washed once with 200 μL of 1×PBS (including 1% BSA and 0.05% NaN3); resuspended with 300 μL of 1×PBS (including 1% BSA and 0.05% NaN3), transferred to flow tubes, and loaded for testing.

For experiment [3] the target is unchanged. Briefly: FACS on human PBMC, binding to CD19+ B cells. As to the method:
as §1

In experiment [4] the target is T2, human NT5E-Biotin (NT5E is GenbankID: NP_002517.1, position: 1-552) (human, UniProt P21589 27-552, biotin label (site not stated)).
T2 construct: range 1-552; Recombinant soluble antigen made by Akeso (batch 20160505), biotinylated and captured on streptavidin; also called HNT5E-Biotin; human NT5E (1-552)-Biotin
T2 sequence (looked up): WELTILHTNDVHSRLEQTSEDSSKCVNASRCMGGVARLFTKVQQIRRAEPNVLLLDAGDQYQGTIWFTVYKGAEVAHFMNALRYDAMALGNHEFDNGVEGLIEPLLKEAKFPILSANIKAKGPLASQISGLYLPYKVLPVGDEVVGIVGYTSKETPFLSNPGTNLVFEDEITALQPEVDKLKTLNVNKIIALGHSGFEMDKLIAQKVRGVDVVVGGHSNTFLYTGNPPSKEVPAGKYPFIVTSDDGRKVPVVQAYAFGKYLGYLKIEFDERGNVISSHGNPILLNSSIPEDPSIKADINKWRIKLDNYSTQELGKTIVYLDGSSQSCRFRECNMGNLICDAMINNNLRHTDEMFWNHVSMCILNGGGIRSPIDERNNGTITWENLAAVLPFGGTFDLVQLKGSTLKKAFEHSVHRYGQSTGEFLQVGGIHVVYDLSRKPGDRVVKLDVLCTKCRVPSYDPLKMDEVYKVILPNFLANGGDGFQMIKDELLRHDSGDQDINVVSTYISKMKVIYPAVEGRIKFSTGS
Briefly: ELISA on streptavidin-captured human NT5E-Biotin; HRP goat anti-mouse IgG.

B1: control antibody CPI-006 (Mupadolimab) (antibody, human IgG1, kappa, N297Q, V domains shown)
VH: QVQLVQSGAEVEKPGASVKVSCKASGYTFTSYWITWVRQAPGQGLEWMGDIYPGSGNTNYNEKFKTRVTITADKSTSTAYMELSSLRSEDTAVYYCAKEGGLTTEDYALDYWGQGTLVTVSS
VL: EIVLTQSPATLSLSPGERATLSCRASKNVSTSGYSYMHWYQQKPGQAPRLLIYLASNLESGIPPRFSGSGYGTDFTLTINNIESEDAAYYFCQHSRELPFTFGQGTKVEIKR
notes: made by Akeso
For B1, the “Inhibition rate EC50 (nM): enzyme activity of CD73 expressed by human PBMC membrane (AMP/ATP CellTiter-Glo read-out)” value in experiment [1] stood at 0.226 nM. Further, the values for the EC50 in experiment [2] and in experiment [3] were 0.288 nM and 0.108 nM, respectively.

B2: murine anti-CD73 monoclonal antibody 19F3 (antibody, V domains shown)
VH: EVQLQQSGPELVKPGASMRMSCKASGYSFTGYTMNWVKQSHGKNLEWIGLINPYNAGTSYNQKFKGKATLTVDKSSSTAYMELLSLTSEDSAVYYCARSEYRYGGDYFDYWGQGTTLTVSS
VL: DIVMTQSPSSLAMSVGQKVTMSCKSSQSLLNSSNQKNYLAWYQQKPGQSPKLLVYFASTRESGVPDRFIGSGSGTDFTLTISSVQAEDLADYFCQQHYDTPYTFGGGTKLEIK
notes: Mouse hybridoma antibody purified on protein A; also called murine antibody 19F3; Murine 19F3
B2 showed an EC50 in experiment [4] of 0.018 nM.
